One experiment deals with T1, human c-Met-His (Homo sapiens, UniProt P08581).
T1 construct: His tag (6xHis) (C); made in house; host or cells: 293F cells (Invitrogen, Cat # R790-07); vector pEE6.4; c-Met gene template origene RC217003
Kind of experiment: ELISA binding of c-Met antibody to c-Met antigen. The following applies: humanized antibody. Here is the method: This experiment uses enzyme linked immunosorbent assay to detect affinity of c-Met antibody (including supermatant of hybridonma or recombinant expressed monoclonal antibodies) to c-Met antigen in vitro.
Experimental procedures: Coating buffer (PBS; Hyclone, Cat No.: SH30256.01B) was used to dilute antigen (human c-Met-His, example 1) to 2 μg/mL, which was added to a 96-well microplate at 100 μL/well (Costar 9018, Cat No.:03113024) and incubated overnight at 4° C. […] The plate was read with plate reader at 450 nm.
Murine anti-human c-Met monoclonal cell lines were obtained by immunizing mice, fusion of spleen cells, and screening of hybridomas. […] After the first booster immunization, mice serum was collected during 7 to 10 days after each booster immunization, and the titer was detected by ELISA (Methods were described in Example 2).
After immunization, mice with a serum titer higher than 1:10^5 were selected for cell fusion. Mouse B-cells and myeloma cells (SP2/0, ATCC number:CRL-1581™) were prepared respectively in aseptic conditions and counted. […] The next day, positive clones were detected by ELISA (see Methods in Example 2).
(In general: An ELISA detects its analyte on a solid surface through an enzyme-linked reagent.)

In the next experiment the test system is MKN45 cells. Kind of experiment: FACS binding to cell line MKN45, which highly expresses c-Met. On the set-up: species or system human. The following applies: flow cytometry, read-out: MKN45/FCAS Binding activity. Here is the method:
A FACS method was used to detect the binding activity of c-Met humanized antibodies with the cell line MKN45, which highly expresses c-Met.
MKN45 cells (JCRB, Cat No.: JCRB0254) were resuspended in RPMI1640 medium (GIBCO, Cat No.: 11835-030) which contains 10% (v/v) fetal calf serum (FBS GIBCO, Cat No.: 10099-141) and Penicillin/Streptomycin (GIBCO, Cat No.: 15070-063) to reach 10,000,000 cells/mL. 2 mL of resuspended MKN45 cells was added to 96-well microtiter plate (Corning, Cat No.: 3799) at 150,000 cells/well, and 8 concentrations of c-Met antibody (5-fold gradient diluted, starting from 20 μg/mL) were added to the corresponding wells, and the final volume was 100 μL. The plate was incubated for 1 hour at 4° C. FACS buffer (PBS comprising 2.5% (v/v) FBS (Hyclone, Cat: SH30256.01B)) was added. The plate was centrifuged under 4° C. at 1300 rmp for 4 minutes, and the supernatant was discarded. This procedure was repeated three times. 100 μL of secondary antibodies (Fluorescence labeled goat-anti-mouse secondary antibodies with 1:200 dilution, Biolegend, Cat No. 405307; Fluorescence labeled anti-human secondary antibody with 1:30 dilution, Biolegend, Cat No. 409304) were added to each well, and the plate was incubated for 1 hour at 4° C. […] FACS buffer was added to resuspend the cells, and the prepared samples were detected by flow cytometry (BD FACS Array).
(In general: In flow cytometry, cells or beads pass a laser one at a time.)

T1 sequence (P08581 with tags, fused parts or gaps limits assumed): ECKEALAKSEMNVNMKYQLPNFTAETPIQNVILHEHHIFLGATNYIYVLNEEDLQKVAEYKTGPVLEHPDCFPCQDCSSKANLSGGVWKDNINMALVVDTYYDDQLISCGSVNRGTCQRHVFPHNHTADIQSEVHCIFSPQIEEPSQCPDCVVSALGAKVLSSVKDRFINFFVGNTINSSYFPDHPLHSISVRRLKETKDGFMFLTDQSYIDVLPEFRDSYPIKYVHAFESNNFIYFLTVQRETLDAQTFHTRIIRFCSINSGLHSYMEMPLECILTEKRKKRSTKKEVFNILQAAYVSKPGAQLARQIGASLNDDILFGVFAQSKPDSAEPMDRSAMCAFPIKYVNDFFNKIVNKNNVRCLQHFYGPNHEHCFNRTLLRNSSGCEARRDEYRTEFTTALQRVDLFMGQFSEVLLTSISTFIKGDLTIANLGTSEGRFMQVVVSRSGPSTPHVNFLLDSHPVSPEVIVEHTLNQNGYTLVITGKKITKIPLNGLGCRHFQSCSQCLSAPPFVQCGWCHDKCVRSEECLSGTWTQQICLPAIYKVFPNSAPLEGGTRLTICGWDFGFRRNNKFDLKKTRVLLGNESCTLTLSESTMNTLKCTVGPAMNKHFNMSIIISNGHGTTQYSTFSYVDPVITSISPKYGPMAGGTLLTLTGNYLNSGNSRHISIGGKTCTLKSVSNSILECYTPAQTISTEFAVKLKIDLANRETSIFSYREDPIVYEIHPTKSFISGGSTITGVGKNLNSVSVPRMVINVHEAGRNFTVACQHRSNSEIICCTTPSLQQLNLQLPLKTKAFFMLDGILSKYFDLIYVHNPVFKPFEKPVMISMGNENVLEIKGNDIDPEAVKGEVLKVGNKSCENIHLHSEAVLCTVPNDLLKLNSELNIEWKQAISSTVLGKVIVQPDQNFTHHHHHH

B1: Ab-9 (antibody)
heavy: QVTLKESGPVLVKPTETLTLTCTVSGFSLPNYGVHWVRQPPGKALEWLAVIWSGGSTNYAAAFVSRLRISKDTSKSQVVFTMNNMDPVDTATYYCARNHDNPYNYAMDYWGQGTTVTVSSASTKGPSVFPLAPCSRSTSESTAALGCLVKDYFPEPVTVSWNSGALTSGVHTFPAVLQSSGLYSLSSVVTVPSSNFGTQTYTCNVDHKPSNTKVDKTVERKCCVECPPCPAPPVAGPSVFLFPPKPKDTLMISRTPEVTCVVVDVSHEDPEVQFNWYVDGVEVHNAKTKPREEQFNSTFRVVSVLTVVHQDWLNGKEYKCKVSNKGLPAPIEKTISKTKGQPREPQVYTLPPSREEMTKNQVSLTCLVKGFYPSDIAVEWESNGQPENNYKTTPPMLDSDGSFFLYSKLTVDKSRWQQGNVFSCSVMHEALHNHYTQKSLSLSPGK
light: DIVLTQSPASLAVSPGQRATITCRANKSVSTSTYNYLHWYQQKPGQPPKLLIYLASNLASGVPARFSGSGSGTDFTLTINPVEANDTANYYCQHSRDLPPTFGQGTKLEIKRTVAAPSVFIFPPSDEQLKSGTASVVCLLNNFYPREAKVQWKVDNALQSGNSQESVTEQDSKDSTYSLSSTLTLSKADYEKHKVYACEVTHQGLSSPVTKSFNRGEC
Consider B1, for which the EC50 with human c-Met-His stood at 0.13 nM; in the experiment on MKN45 cells, 1.6 nM.

(Values after patent US20200054764A1, “MEDICAL USE OF ANTI-C MET ANTIBODY-CYTOTOXIC DRUG CONJUGATE” (priority 2016, published 2020).)
